Biological target: bacterial proteasome activator Bpa, full-length, wild-type (M. tuberculosis H37Rv) (UniProt P9WKX3)
Assay: MST

Substance: heat shock repressor HspR, wild-type (natural protein)
- Kd: 4.3 µM
